Reference: PMC5264506, “An antibody that prevents serpin polymerisation acts by inducing a novel allosteric behaviour” (Biochemical Journal, 2016)
Blank lines part the entries; values can stand above or below the binder they belong to.

Legend:
[1] = biological target: the molecule itself; test: native gel or EMSA; endpoint polymerisation: 0.1 mg/ml heated for 4 h (55°C, or 45-63°C) without antibody during heating; bis-Tris non-denaturing PAGE, Coomassie; polymerisation read as loss of the monomer band
[2] = biological target: T1, α1-antitrypsin, plasma-derived wild-type (M) (UniProt P01009 25-418); test: progress curves of intrinsic protein fluorescence (peptide incorporation) + native gel or EMSA; as a5, in the presence of mAb4B12; conditions: both partners purified
T1 construct: alpha1-antitrypsin, wild-type 'M' allele, plasma-derived; also called α1-AT; α1-ATWT; source: plasma-derived

[3] = biological target: α1-antitrypsin, plasma-derived wild-type (M) (UniProt P01009); test: as above

B1: α1-AT_(79-306), disulphide variant Gly79Cys/Leu306Cys (natural protein, UniProt P01009 25-418, looked up)
chain: EDPQGDAAQKTDTSHHDQDHPTFNKITPNLAEFAFSLYRQLAHQSNSTNIFFSPVSIATAFAMLSLGTKADTHDEILECLNFNLTEIPEAQIHEGFQELLRTLNQPDSQLQLTTGNGLFLSEGLKLVDKFLEDVKKLYHSEAFTVNFGDTEEAKKQINDYVEKGTQGKIVDLVKELDRDTVFALVNYIFFKGKWERPFEVKDTEEEDFHVDQVTTVKVPMMKRLGMFNIQHSKKLSSWVLLMKYLGNATAIFFLPDEGKLQHLENELTHDIITKFLENEDRRSASLHLPKLSITGTYDLKSVLGQCGITKVFSNGADLSGVTEEAPLKLSKAVHKAVLTIDEKGTEAAGAMFLEAIPMSIPPEVKFNKPFVFLMIEQNTKSPLFMGKVVNPTQK
modifications: disulphide 79-306 present in ~90% of molecules
notes: alpha1-antitrypsin, 'M' allele, engineered disulphide between helix C and the C-terminus of helix I, on the Cys232Ser background; also called 79-306 double mutant; source: E. coli XL-1 blue, pQE-30-based plasmid, purified
binding result [1]: binds

fold increase in the rate of peptide incorporation with mAb4B12 against the non-antibody-bound control [2]: 2.5 fold
B2: 11-mer RCL peptide Ac-SEAAASTAVVI-NH2 (peptide)
peptide: Ac-SEAAASTAVVI-NH2
notes: model peptide corresponding with the reactive centre loop (RCL) of anti-thrombin; source: synthetic peptide

fold increase in the rate of peptide incorporation with mAb4B12 against the non-antibody-bound control [3]: 1.8 fold
Binder: Ac-FLAA-NH2 [4-mer peptide Ac-FLAA-NH2]
